Test results from US20220047712A1 (FORTIS THERAPEUTICS, published 2022).

Target: T1, CD46 (human, UniProt P15529 35-392)
T1 construct: whole, on cells; also called CD46 complement regulatory protein; cluster of differentiation 46
T1 sequence (looked up): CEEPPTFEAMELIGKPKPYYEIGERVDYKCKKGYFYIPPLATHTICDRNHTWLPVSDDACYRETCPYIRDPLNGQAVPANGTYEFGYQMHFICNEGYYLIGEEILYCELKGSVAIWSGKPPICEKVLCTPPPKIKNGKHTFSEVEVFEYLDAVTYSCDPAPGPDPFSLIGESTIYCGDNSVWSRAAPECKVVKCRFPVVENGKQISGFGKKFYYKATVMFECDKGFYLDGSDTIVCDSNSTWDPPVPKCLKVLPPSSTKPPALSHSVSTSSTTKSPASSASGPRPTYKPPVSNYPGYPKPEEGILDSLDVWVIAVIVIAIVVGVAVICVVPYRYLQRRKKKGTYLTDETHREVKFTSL
Assay: flow cytometry on cells, YS5FL at 10 µg/mL, AlexaFluor-488 anti-human IgG1 Fc secondary
Method: Cell surface CD46 was detected by flow cytometry. Cells were harvested, centrifuged and resuspended in FACS buffer (PBS+2% FBS) at a concentration of 1×10⁶ cells/mL. 100 μL of cell suspension was dispensed into each well of a 96-well plate, 100 μL of YS5FL at 10 μg/mL was added to the wells and incubated for 1 hour at 4° C. The cells were washed three times with FACS buffer. After the third wash, the cells were resuspended in 100 μL 1:500 diluted AlexaFluor-488 mouse anti-Human IgG1 Fc secondary antibody and incubated for 1 hour at 4° C. in the dark. The cells were washed three times with 200 μL PBS by centrifuging at 2000 RPM for 5 minutes. After the last wash, the cells were resuspended in 300 μL cold PBS and analyzed on a FACSVerse™ (BD Biosciences) flow cytometer. YS5FL bound specifically to the surface of LnCap-C4-2B, LnCap-C4, DU145, PC3-luc, and Hs27 prostate cancer cells, but not to non-tumor BPH1 cells. FIG. 1. Likewise, YS5FL bound specifically to the surface of RPMI8226, MM.1S, MM.1R, and INA6 multiple myeloma cells. FIG. 2.

B1: YS5FL (antibody, human IgG1, lambda, V domains shown)
VH: QVQLVQSGGGVVQPGRSLRLACAASGLTVNNYAMHWVRQAPGKGLEWVAVISYDGNNKYYADSVKGRFTISRDNSKNTLYLQMNSLRAEDTAVYYCAKGGGYFDLWGRGTLVTVSS
VL: QSVLTQPPSVSGAPGQRVTISCTGSSSNIGAGYDVHWYQQLPGTAPKLLIYGNNNRPSGVPDRFSGSKSGTSASLAITGLQAEDEADYYCSSYTSGTWLFGGGTKLTVLG
notes: FOR46 is this antibody conjugated to MMAE via mc-vc-PAB; also called anti-CD46 YS5FL antibody; YS5FL mAb
binding result: binds
